Results published in patent publication US20240287172A1 (SCIRHOM, published 2024).

T1: miR2-FL-WT-FLAG (mouse, UniProt Q80WQ6 1-827)
T1 construct: on MEF-DKO cells
T1 sequence: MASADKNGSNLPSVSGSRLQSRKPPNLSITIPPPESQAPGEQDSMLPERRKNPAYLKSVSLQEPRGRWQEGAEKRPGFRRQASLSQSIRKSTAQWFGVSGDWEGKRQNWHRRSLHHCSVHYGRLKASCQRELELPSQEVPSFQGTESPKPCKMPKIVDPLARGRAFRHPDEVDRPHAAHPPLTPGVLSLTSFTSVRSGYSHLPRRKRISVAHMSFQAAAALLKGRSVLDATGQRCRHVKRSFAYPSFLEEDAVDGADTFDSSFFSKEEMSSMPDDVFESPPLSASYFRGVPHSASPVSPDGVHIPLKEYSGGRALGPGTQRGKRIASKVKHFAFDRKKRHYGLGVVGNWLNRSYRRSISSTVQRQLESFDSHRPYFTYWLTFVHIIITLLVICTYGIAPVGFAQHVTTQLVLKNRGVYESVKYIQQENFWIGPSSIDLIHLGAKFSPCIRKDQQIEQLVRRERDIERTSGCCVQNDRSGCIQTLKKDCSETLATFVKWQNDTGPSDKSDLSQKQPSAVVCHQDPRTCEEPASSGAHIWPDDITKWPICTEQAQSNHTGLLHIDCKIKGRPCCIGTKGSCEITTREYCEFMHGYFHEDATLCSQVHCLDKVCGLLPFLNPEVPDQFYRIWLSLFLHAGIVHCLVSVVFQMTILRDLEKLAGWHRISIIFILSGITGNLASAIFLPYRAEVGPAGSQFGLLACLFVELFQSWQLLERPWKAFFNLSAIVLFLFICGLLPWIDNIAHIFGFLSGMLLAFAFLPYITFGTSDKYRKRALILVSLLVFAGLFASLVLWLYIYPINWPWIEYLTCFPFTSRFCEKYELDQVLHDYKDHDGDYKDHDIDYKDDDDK

T2: human iRhom2, endogenously expressed (human, UniProt Q6PJF5 1-856)
T2 sequence: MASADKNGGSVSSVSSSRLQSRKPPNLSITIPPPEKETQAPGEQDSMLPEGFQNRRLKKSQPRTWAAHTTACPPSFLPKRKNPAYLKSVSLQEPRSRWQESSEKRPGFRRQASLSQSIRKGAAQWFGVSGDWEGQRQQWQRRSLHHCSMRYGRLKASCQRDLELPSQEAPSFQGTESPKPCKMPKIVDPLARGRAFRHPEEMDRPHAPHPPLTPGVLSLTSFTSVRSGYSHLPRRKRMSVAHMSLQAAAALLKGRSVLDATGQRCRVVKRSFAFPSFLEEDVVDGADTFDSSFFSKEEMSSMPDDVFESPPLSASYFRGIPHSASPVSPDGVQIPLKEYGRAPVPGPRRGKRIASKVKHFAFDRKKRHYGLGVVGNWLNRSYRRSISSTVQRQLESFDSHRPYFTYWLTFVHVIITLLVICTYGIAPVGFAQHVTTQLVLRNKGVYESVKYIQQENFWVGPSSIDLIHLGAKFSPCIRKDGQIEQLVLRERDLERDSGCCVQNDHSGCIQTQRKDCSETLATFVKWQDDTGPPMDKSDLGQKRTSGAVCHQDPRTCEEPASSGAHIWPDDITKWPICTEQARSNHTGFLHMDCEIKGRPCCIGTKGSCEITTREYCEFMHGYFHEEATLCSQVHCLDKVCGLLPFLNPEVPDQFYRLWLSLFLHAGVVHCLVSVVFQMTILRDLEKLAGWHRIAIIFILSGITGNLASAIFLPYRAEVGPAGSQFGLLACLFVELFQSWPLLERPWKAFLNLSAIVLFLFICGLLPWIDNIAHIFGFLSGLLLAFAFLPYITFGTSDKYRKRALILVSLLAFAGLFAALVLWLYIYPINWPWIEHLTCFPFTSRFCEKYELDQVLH


Assays:
[1] = target: T1, miR2-FL-WT-FLAG; experiment: FACS, MEF-DKO-miR2-FL-WT-FLAG cells
Procedure: In brief, immortalized MEF-DKO-EV control cells, MEF-DKO-hiR2-FL-WT-FLAG cells and MEF-DKO-miR2-FL-WT-FLAG cells were harvested with 10 mM EDTA in PBS, washed and resuspended in FACS buffer (PBS, 3% FBS, 0.05% sodium azide), and seeded in Nunc U-bottom 96-well plates (Thermo Fisher Scientific, USA) at approximately 3×10⁵ cells per well. To pellet cells and remove supernatants, the plates were centrifuged at 1,500 rpm and 4° C. for 3 minutes. For primary staining, cells were resuspended in 100 μl per well of either FACS buffer alone (controls), mouse monoclonal anti-FLAG IgG (Sigma-Aldrich, USA) at 3 μg/ml FACS buffer or the antibodies of the invention also at 3 μg/ml FACS buffer and incubated on ice for 1 hour. Afterwards, plates were centrifuged at 1,500 rpm and 4° C. for 3 minutes and washed twice with 200 μl per well of FACS buffer. For secondary staining, cells were spun down and resuspended in 100 μl per well of PE-conjugated goat anti-mouse IgG F(ab′)2 detection fragment (Dianova, Germany) diluted 1:100 in FACS buffer. Protected from light, the cell suspensions were incubated on ice for 1 hour. Plates were then centrifuged at 1,500 rpm and 4° C. for 3 minutes and washed three times with 200 μl per well of FACS buffer. Finally, cells were resuspended in 150 μl per well of FACS buffer and analyzed using a BD Accuri™ C6 Plus flow cytometer (Becton Dickinson, Germany).

[2] = target: T2, human iRhom2, endogenously expressed; experiment: cell-based or functional assay

| Binder | binding result [1] | LPS-induced TNFα release from THP-1 cells, percent inhibition, 10 µg/ml, hybridoma-purified [2] | LPS-induced TNFα release from THP-1 cells, percent inhibition, recombinant antibody [2] | PMA-induced IL-6R release from THP-1 cells, percent inhibition, 1 µg/ml [2] | PMA-induced IL-6R release from U-937 cells, percent inhibition, 1 µg/ml [2] | PMA-induced TNFα release from U-937 cells, percent inhibition, 1 µg/ml [2] | LPS-induced TNFα release from PBMCs of healthy donors, percent inhibition, 1 µg/ml [2] | LPS-induced TNFα release from human macrophages of healthy donors, percent inhibition, 10 µg/ml [2] | PMA-induced HB-EGF release from PBMCs of healthy donors, percent inhibition, 1 µg/ml [2] | PMA-induced HB-EGF release from THP-1 cells, percent inhibition, 3 µg/ml [2] | PMA-induced HB-EGF release from U-937 cells, percent inhibition [2] | PMA-induced IL-6R release from PBMCs of healthy donors, percent inhibition, 1 µg/ml [2] | PMA-induced IL-6R release from U-937 cells, percent inhibition, 3 µg/ml [2] | PMA-induced TGFα release from PC3 cells, percent inhibition, 1 µg/ml [2] | PMA-induced TNFα release from U-937 cells, percent inhibition, 3 µg/ml [2] |
| --- | --- | --- | --- | --- | --- | --- | --- | --- | --- | --- | --- | --- | --- | --- | --- |
| antibody 48 (antibody, V domains shown, mouse IgG, kappa light chain; also called clone #48; purified antibody 48) VH: QVQLQQSGTELVRPGTSVKVSCKASGYAFTNYLIEWVKQRPGQGLEWIGVINPGSGFTKYNEKFKGKATLTADKSSSTVYMHLSSLTSEDSAVYFCARGLYRAMDYWGQGTSVTVSS VL: DIQMTQSPASQSASLGESVTITCLASQTIATWLAWYQQKPGKSPQLLIYGATTLADGVPSRFSGGGSGTKFSFKISSLQAEDFVSYYCQQLYSTPYTFGGGTKLEIK | no binding (tested: 3 µg/ml) |  |  |  |  |  |  |  |  |  |  |  |  |  |  |
| antibody 47 (antibody, V domains shown, mouse IgG, kappa light chain; also called clone #47) VH: QVQLQQSGAELVRPGTSVKVSCKASGYAFTNYLIEWVKQRPGQGLEWIGVINPGSGFTNYNEKFKGKAILNADKSSSTAYMQLISLTSEDSAVYFCARDLKRAMDHWGQGTSVTVSS VL: DIQMTQSPASQSASLGESVTITCLASQTIGTWLAWYQQKPGKSPQLLIHAATSLADGVPSRFSGSGSGTKFSFKISSLQAEDFVSYYCQQIYSSPYTFGGGTKLEIK | no binding (tested: 3 µg/ml) |  |  |  |  |  |  |  |  |  |  |  |  |  |  |
| antibody 50 (antibody, V domains shown, mouse IgG, kappa light chain; also called clone #50; purified antibody 50) VH: QVQLQQSGAELVRPGASVKVSCKASGYAFSNYLIEWVKQRPGQGLEWIGVINPGSGFTKYNEKFKGKATLTADKSSSTAYMQLSSLTSEDSAVYFCARGLYRAMDYWGQGTSVTVSS VL: DIQMTQSPASQSASLGESVTITCLASQTIGTWLAWYQQKPGKSPQLLIYAAASLADGVPSRFSGGGSGTKFSFKISSLQAEDFVNYYCQQIYSTPYTFGGGTKLEIK | no binding (tested: 3 µg/ml) |  |  |  |  |  |  |  |  |  |  |  |  |  |  |
| antibody 5 (antibody, V domains shown, mouse IgG, kappa light chain; also called clone #5; purified antibody 5) VH: QVTLKESGPGILQPSQTLSLTCSFSGFSLSTFGMGVGWIRQPSGKGLEWLAHIWWDDEKYYNSALKSRLTISKATSKNQAFLKIANVDTADTATYYCARISNYGSNYWYFNVWGTGTTVTVSS VL: QVVLTQSPALMSASPGEKVTMTCSAGSSVSCMYWYQQKPGSSPRVLIYDTSNLASGVPARFTGSGSGTSYSLTISRMEAEDAASYYCQQWNSYPLTFGAGTKLELK | no binding (tested: 3 µg/ml) | 69% | 70.5% | 64.1% | 67% | 63.6% |  |  |  |  |  |  |  |  |  |
| antibody 22 (antibody, V domains shown, mouse IgG, kappa light chain; also called clone #22; purified antibody 22) VH: QVTLKESGPGILQPSQTLSLTCSFSGFSLSTFGMGVGWIRQPSGKGLEWLAHIWWDDEKYYNSALKSRLTISKATSKNQVFLKIANVDTADTATYYCARISNYGSNYWYFNVWGTGTTVTVSS VL: QVVLTQSPALMSASPGEKVTMTCSAGSSVSYMYWYQQKPGSSPRVLIYDTSNLASGVPARFTGSGSGTSYSLTISRMEAEDAATYYCQQWNSYPLTFGAGTKLELK | no binding (tested: 3 µg/ml) | 78.8% | 78.4% | 67.4% | 74.5% | 86.1% | 72.8% | 78.8% | 56.5% | 77.7% | 101% | 79.3% | 79% | 12.7% | 93.1% |
| antibody 51 (antibody, V domains shown, mouse IgG, kappa light chain; also called clone #51) VH: QVQLQQSGAELVKPGASVKISCKASGYTFSNYWMNWVKQRPGKGLEWIGQIYPGDGDTKYNGKFKNKATLTADKSSSTAYMQFSSLTSEDSAVYFCARGDLVFVYWGLGTLVTVSA VL: DVQITQSPSYLAVSPGETITINCRASKNIRKYLAWYQEKPGKTNKLLIYSGSTSQSGVPSRFSGSGSGTDFTLTISSLEPEDFAMYYCQQHNEYPYTFGGGTKLEIK | no binding (tested: 3 µg/ml) |  |  |  |  |  |  |  |  |  |  |  |  |  |  |
| antibody 16 (antibody, V domains shown, mouse IgG, kappa light chain; also called clone #16; purified antibody 16) VH: QVTLKESGPGILQPSQTLSLTCSFSGFSLSTFALGVGWIRQPSGRGLEWLAHIWWDDDKYYNPALKSRLTISKDTSKNHVFLKIANVDTADTATYYCARITTYYYGMDYWGQGTSVTVSS VL: DIVLSQSPATLSVTPGDSVSLFCRASQSIGNHLHWYQQESHASPRLLIKYASQSISGIPSRFSGSGSGTDFTLSINSVETEDFGMYFCQQSYNWPLTFGAGTKLELK | no binding (tested: 3 µg/ml) | 65.4% | 70.7% | 72.5% | 77.7% | 91.6% | 81.3% | 85.8% | 71.6% | 71.9% | 99.6% | 84.3% | 77.4% | 13.9% | 91.9% |
| antibody 3 (antibody, V domains shown, mouse IgG, kappa light chain; also called clone #3; purified antibody 3) VH: QVTLKESGPGILQPSQTLSLTCSFSGFSLTTFAMGIGWVRQPSGKGLEWLAHIWWDGEKYNNPVLKSRLTISKDTSKNQVFLRIANVDTPDTATYYCARISSIYYIIDNWGQGTSVTVSS VL: DIVLTQSPATLSVTPGHSVSLSCRASQSISNNLHWYQKKSHESPRLLIKYVSQSISGIPSRFSGSGSGTDFTLSINSVETEDFGMYFCQQSYNWPLTFGAGTKLELK |  | 71.2% | 59.9% | 46.7% | 61.8% | 65.9% |  |  |  |  |  |  |  |  |  |
